B1: r4_43_TrROS_Hall (parent)
chain: DLVTIKVPLENLEEIKKAAEKAGFKIVSISYDKENKEVTIVIEKKK

Variants of: B1
Test: folding stability dG (cDNA display proteolysis); higher = more stable
Conditions: PBS, room temperature

| Variant | folding stability dG [kcal/mol] |
| --- | --- |
| DLVTIKVPLENLEEIKKAAEKAGFKIVSISYDKHNKEVTIVIEKKK [E34H] | 3.92 |
| DLVTIKVPLENLEEIKKAAEKAGFKIVSISYDKWNKEVTIVIEKKK [E34W] | 3.96 |
| DLVTIKVPLENLEEIKKAAEKAGFKIVSISYDKMNKEVTIVIEKKK [E34M] | 3.74 |
| DLVTIKVPLENLEEIKKAAEKAGFKIVSISYDKKNKEVTIVIEKKK [E34K] | 3.83 |
| DLVTIKVPLENLEEIKKAAEKAGFKIVSISYDKPNKEVTIVIEKKK [E34P] | 3.68 |
| DLVTIKVPLENLEEIKKAAEKAGFKIVSISYDKLNKEVTIVIEKKK [E34L] | 4.04 |
| DLVTIKVPLENLEEIKKAAEKAGFKIVSISYDKCNKEVTIVIEKKK [E34C] | 3.63 |
| DLVTIKVPLENLEEIKKAAEKAGFKIVSISYDKQNKEVTIVIEKKK [E34Q] | 3.89 |
| DLVTIKVPLENLEEIKKAAEKAGFKIVSISYDKANKEVTIVIEKKK [E34A] | 3.48 |
| DLVTIKVPLENLEEIKKAAEKAGFKIVSISYDKYNKEVTIVIEKKK [E34Y] | 3.81 |
| DLVTIKVPLENLEEIKKAAEKAGFKIVSISYDKGNKEVTIVIEKKK [E34G] | 3.8 |
| DLVTIKVPLENLEEIKKAAEKAGFKIVSISYDKTNKEVTIVIEKKK [E34T] | 3.77 |
| DLVTIKVPLENLEEIKKAAEKAGFKIVSISYDKVNKEVTIVIEKKK [E34V] | 3.72 |
| DLVTIKVPLENLEEIKKAAEKAGFKIVSISYDKSNKEVTIVIEKKK [E34S] | 3.86 |
| DLVTIKVPLENLEEIKKAAEKAGFKIVSISYDKNNKEVTIVIEKKK [E34N] | 3.77 |
| DLVTIKVPLENLEEIKKAAEKAGFKIVSISYDKFNKEVTIVIEKKK [E34F] | 3.67 |
| DLVTIKVPLENLEEIKKAAEKAGFKIVSISYDKDNKEVTIVIEKKK [E34D] | 3.75 |
| DLVTIKVPLENLEEIKKAAEKAGFKIVSISYDKRNKEVTIVIEKKK [E34R] | 3.84 |
| DLVTIKVPLENLEEIKKAAEKAGFKIVSISYDKINKEVTIVIEKKK [E34I] | 3.88 |

| Variant | folding stability dG [kcal/mol] |
| --- | --- |
| DLVTIKVPLENLEEIKKAAEKAGFKIVSISYDDENKEVTIVIEKKK [K33D] | 3.11 |
| DLVTIKVPLENLEEIKKAAEKAGFKIVSISYDLENKEVTIVIEKKK [K33L] | 3.8 |
| DLVTIKVPLENLEEIKKAAEKAGFKIVSISYDNENKEVTIVIEKKK [K33N] | 3.74 |
| DLVTIKVPLENLEEIKKAAEKAGFKIVSISYDMENKEVTIVIEKKK [K33M] | 3.72 |
| DLVTIKVPLENLEEIKKAAEKAGFKIVSISYDSENKEVTIVIEKKK [K33S] | 3.5 |
| DLVTIKVPLENLEEIKKAAEKAGFKIVSISYDFENKEVTIVIEKKK [K33F] | 3.61 |
| DLVTIKVPLENLEEIKKAAEKAGFKIVSISYDIENKEVTIVIEKKK [K33I] | 3.85 |
| DLVTIKVPLENLEEIKKAAEKAGFKIVSISYDQENKEVTIVIEKKK [K33Q] | 3.83 |
| DLVTIKVPLENLEEIKKAAEKAGFKIVSISYDGENKEVTIVIEKKK [K33G] | 3.28 |
| DLVTIKVPLENLEEIKKAAEKAGFKIVSISYDYENKEVTIVIEKKK [K33Y] | 3.42 |
| DLVTIKVPLENLEEIKKAAEKAGFKIVSISYDTENKEVTIVIEKKK [K33T] | 3.41 |
| DLVTIKVPLENLEEIKKAAEKAGFKIVSISYDWENKEVTIVIEKKK [K33W] | 3.76 |
| DLVTIKVPLENLEEIKKAAEKAGFKIVSISYDHENKEVTIVIEKKK [K33H] | 3.73 |
| DLVTIKVPLENLEEIKKAAEKAGFKIVSISYDCENKEVTIVIEKKK [K33C] | 3.44 |
| DLVTIKVPLENLEEIKKAAEKAGFKIVSISYDEENKEVTIVIEKKK [K33E] | 3.43 |
| DLVTIKVPLENLEEIKKAAEKAGFKIVSISYDPENKEVTIVIEKKK [K33P] | 2.94 |
| DLVTIKVPLENLEEIKKAAEKAGFKIVSISYDAENKEVTIVIEKKK [K33A] | 3.49 |
| DLVTIKVPLENLEEIKKAAEKAGFKIVSISYDRENKEVTIVIEKKK [K33R] | 3.93 |
| DLVTIKVPLENLEEIKKAAEKAGFKIVSISYDVENKEVTIVIEKKK [K33V] | 3.73 |

| Variant | folding stability dG [kcal/mol] |
| --- | --- |
| DLVTIKVPLENLEEIKKAAEKAGFKIVSISWDKENKEVTIVIEKKK [Y31W] | 3.55 |
| DLVTIKVPLENLEEIKKAAEKAGFKIVSISRDKENKEVTIVIEKKK [Y31R] | 3.39 |
| DLVTIKVPLENLEEIKKAAEKAGFKIVSISDDKENKEVTIVIEKKK [Y31D] | 2.58 |
| DLVTIKVPLENLEEIKKAAEKAGFKIVSISHDKENKEVTIVIEKKK [Y31H] | 3.41 |
| DLVTIKVPLENLEEIKKAAEKAGFKIVSISLDKENKEVTIVIEKKK [Y31L] | 3.12 |
| DLVTIKVPLENLEEIKKAAEKAGFKIVSISMDKENKEVTIVIEKKK [Y31M] | 3.19 |
| DLVTIKVPLENLEEIKKAAEKAGFKIVSISQDKENKEVTIVIEKKK [Y31Q] | 3.23 |
| DLVTIKVPLENLEEIKKAAEKAGFKIVSISIDKENKEVTIVIEKKK [Y31I] | 3.27 |
| DLVTIKVPLENLEEIKKAAEKAGFKIVSISVDKENKEVTIVIEKKK [Y31V] | 3.47 |
| DLVTIKVPLENLEEIKKAAEKAGFKIVSISGDKENKEVTIVIEKKK [Y31G] | 2.76 |
| DLVTIKVPLENLEEIKKAAEKAGFKIVSISKDKENKEVTIVIEKKK [Y31K] | 3.34 |
| DLVTIKVPLENLEEIKKAAEKAGFKIVSISCDKENKEVTIVIEKKK [Y31C] | 3.37 |
| DLVTIKVPLENLEEIKKAAEKAGFKIVSISPDKENKEVTIVIEKKK [Y31P] | 2.97 |
| DLVTIKVPLENLEEIKKAAEKAGFKIVSISSDKENKEVTIVIEKKK [Y31S] | 2.83 |
| DLVTIKVPLENLEEIKKAAEKAGFKIVSISEDKENKEVTIVIEKKK [Y31E] | 3.29 |
| DLVTIKVPLENLEEIKKAAEKAGFKIVSISNDKENKEVTIVIEKKK [Y31N] | 2.95 |
| DLVTIKVPLENLEEIKKAAEKAGFKIVSISTDKENKEVTIVIEKKK [Y31T] | 3.15 |
| DLVTIKVPLENLEEIKKAAEKAGFKIVSISADKENKEVTIVIEKKK [Y31A] | 3.06 |

Source: the MegaScale stability set (Tsuboyama et al. 2023)
